This assay deals with human Gαi3 (residues 1–354), GDP-bound form (human, UniProt P08754 1-354). Put plainly: cell-based or functional assay.
human Gαi3 (residues 1–354), GDP-bound form, sequence (P08754 whole entry, the tested form may be a part): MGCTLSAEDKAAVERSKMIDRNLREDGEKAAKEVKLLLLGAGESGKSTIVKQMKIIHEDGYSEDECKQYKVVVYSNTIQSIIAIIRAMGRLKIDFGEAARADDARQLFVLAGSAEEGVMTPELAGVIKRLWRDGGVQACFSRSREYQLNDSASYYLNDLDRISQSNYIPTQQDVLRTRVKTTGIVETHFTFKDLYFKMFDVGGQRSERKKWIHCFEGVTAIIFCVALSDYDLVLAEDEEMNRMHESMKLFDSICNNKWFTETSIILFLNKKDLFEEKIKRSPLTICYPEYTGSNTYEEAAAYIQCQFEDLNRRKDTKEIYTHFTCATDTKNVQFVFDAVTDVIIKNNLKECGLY

As to GPLGSDIEGLVELLNRVQSSGAHDQRGLLRKEDLVLPEFLQ [GoLoco14 peptide (residues 496–531 of rat RGS14)], the “IC50 of the inhibition of 3H-GDP dissociation from Gα-GDP (bound 3H-GDP after a 10 min incubation with 100 nM to 10 μM GoLoco14; 30 °C)” value is 620 nM.

(Values after publication PMC5322562, “Dynamic regulation of GDP binding to G proteins revealed by magnetic field-dependent NMR relaxation analyses” (Nature Communications, 2017).)
